This note sets out measurements from article PMC3196588.

In test [1] the target is C3S mutant of human galectin-1 (human) (UniProt P09382). Description: affinity chromatography; galectin-1 C3S (or its site B mutants) coupled to 1 ml NHS-activated Hi-Trap column; 0.1 ml serum from healthy individuals in 1.9 ml PBS circulated 30 min on ice; wash 32 column volumes PBS; elution with 150 mM lactose; bound proteins identified by SDS-PAGE, MALDI-TOF MS and western blot, IgM and haptoglobin quantitated by ELISA. (In general: Immunoblotting shows a protein as a band on a membrane.)

Test [2] shares this target. Description: affinity chromatography; galectin-1 C3S coupled to 1 ml NHS-activated Hi-Trap column; 0.1 ml serum from metastatic breast cancer patients in 1.9 ml PBS circulated 30 min on ice; wash 32 column volumes PBS; elution with 150 mM lactose; bound proteins identified by SDS-PAGE, MALDI-TOF MS and western blot, IgM and haptoglobin quantitated by ELISA.
Test [3] has the same target. As to the kind of experiment: affinity chromatography; galectin-1 C3S (or C3S N34D) coupled to 1 ml column; 2 mg haptoglobin (pooled from human plasma) in 2 ml PBS circulated 30 min on ice; wash 32 column volumes PBS; elution with 150 mM lactose; unbound fraction rechromatographed.
Test [4] has the same target. Description: fluorescence polarisation; fluorescence anisotropy inhibition assay: haptoglobin as inhibitor of the interaction of galectin-1 or mutants with a fluorescein tagged thiodigalactoside-amid (tdga) probe; Kd from inhibitory potency, haptoglobin counted as the dimer.

The Kd is the constant that tells how readily two partners part at equilibrium. High values mean lower affinity, low ones higher affinity. Turning to “haptoglobin (human, unfractionated) (from UniProt P00738 19-160; P00738 162-406) (complex)”, the percent of haptoglobin bound to galectin-1 (average, control sera) in test [1] came out at 30%. For the same substance, in test [2], the percent of haptoglobin bound to galectin-1 (average, cancer sera) is 50%. The same substance yielded a percent bound to the column in test [3] of 30%. Further, in test [4], the Kd was 2500 nM.

Regarding “IgM (human serum) (from UniProt P01591 23-159) (complex)”, in test [1], the percent of IgM bound to galectin-1 (mean, healthy sera) was 37%. Further, the percent of IgM bound to galectin-1 (mean, cancer sera) in test [2] is 28%.

As for “galectin-1 non-binding fraction of haptoglobin (from UniProt P00738 19-160; P00738 162-406) (complex)”, the percent bound to the column when rechromatographed in test [3] is less than 1%.

Consider “galectin-1 binding fraction of haptoglobin (from UniProt P00738 19-160; P00738 162-406) (complex)”, for which the Kd in test [4] was less than 1000 nM.
